Data on 24 sequences can be found in the supplement of paper PMC9170038.

For the data set, the system named is MS2 coat protein. Kind of data set: apparent KD of MS2 coat protein; designed switch direction (-1 OFF switch, 1 ON switch): -1; higher = weaker reporter binding. A digest of the protocol:
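Designed RNA switches with common flanks were transcribed on Illumina chips by stalled E. coli RNA polymerase and titrated with SNAP-549-labelled MS2 coat protein, from 0.7 or 1.5 nM doubling to 3 µM, in Tris-HCl pH 7.5 buffer with KCl, MgCl2, BSA, DTT, tRNA and Tween-20. Steps lasted 0.8–1.5 h (lowest) to 10–20 min (highest). Titrations ran without input, with 200 uM small-molecule ligand, or with an oligonucleotide input. Normalised cluster fluorescence was curve-fitted, and apparent KD is the per-design median over clusters.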

The mark [1] stands for this setting: Eterna round: R95, input ligand: microRNA oligo, concentration not stated.
Where [2] appears, read: input ligand: microRNA oligo, concentration not stated.

For the sequence “UAUAACAAGCCAGAUCCUAACAUGAGGAUCACCCAUGUGCUCGUCUGAUUUUGUACUAUCAUGAGAGUGAUAGUACU [Level Boss var2-03] (puzzle: Sensor v3, turn-off variant 1)”, the “apparent KD of MS2 coat protein” value by setting is: (Eterna round: R95, input ligand: FMN 200 uM) 181 nM; under setting [1], 488 nM; (Eterna round: R95, input ligand: none) 192 nM.
In the case of “UAUAACCAAGGAUAUACAUGAGGAUCACCCAUGUAAUAUAAAAUAAAAUAAAUAAAAUGUAGAAGGUGGGAUAU (Eterna round: R97, puzzle: Exclusion 3)”, the “apparent KD of MS2 coat protein” value reads like this: (input ligand: FMN 200 uM) 40.8 nM; (input ligand: none) 37.6 nM.
As for “UAUAAUACAUAGGAUAUCGAAUAAAUCAUUUAACGAGAAGGAUGAACAUGAGGAUCACCCAUGUGGUAUCAUGG [Mat - Exclusion 6 - JL Mod - D12] (puzzle: Exclusion 6)”, under setting [1], the “apparent KD of MS2 coat protein” value was determined as 180 nM.
Turning to “UAUACAAAAGAUACCUCGUGACAUGAGGAUCACCCAUGUUUUGAGGAUAUCAGACUUCAUGGUCAUGAGAAGGCAGAGCAUGAU [Tireala] (Eterna round: R96, puzzle: Exclusion NG 3)”, the “apparent KD of MS2 coat protein” value stood at 20.4 nM (input ligand: FMN 200 uM), 10.1 nM under setting [2] and 13.6 nM (input ligand: none).
As for “UAUAUAUAGUAAGGAUAUGUAAUUAUUUUAUGAACAGAAGGUACUGACAUGAGGAUCACCCAUGUUUUAGUGUGGGCAUGUAGA [JMF's solution 48] (Eterna round: R96, puzzle: Exclusion NG 1)”, the “apparent KD of MS2 coat protein” value under setting [2] came to 61.3 nM.
Same read-out and setting: the figure for “UAUAUAUAGUAAGGAUAUGUAAUUAUUUUGUAAACAGAAGGUACUGACAUGAGGAUCACCCAUGUUUUAGUGUGGGCAUGUAGA [JMF's solution 44] (Eterna round: R96, puzzle: Exclusion NG 1)” is 84.5 nM; for “UAUAUAUAGUAAGGAUAUGUAUAUAUUCUAUAAACAGAAGGUACUGACAUGAGGAUCACCCAUGUUUUAGUGUGGGCAUGUAGA [JMF's solution 62] (Eterna round: R96, puzzle: Exclusion NG 1)” it is 27.4 nM; for “UAUAUAUAGUAAGGAUAUGUAUUAAUUUUAUUAACAGAAGGUACUGACAUGAGGAUCACCCAUGUUUUAGUGUGGGCAUGUAGA [JMF's solution 90] (Eterna round: R96, puzzle: Exclusion NG 1)” it is 69.4 nM.
Take “UAUAUAUAGUAAGGAUAUGUAUUUAUUCUAUAAACAGAAGGUACUGACAUGAGGAUCACCCAUGUUUUAGUGUGGGCAUGUAGA [JMF's solution 18] (Eterna round: R96, puzzle: Exclusion NG 1)”: the “apparent KD of MS2 coat protein” value under setting [2] is 33 nM.
Consider “UAUAUAUAGUAAGGAUAUGUAUUUAUUUUAUAGACAGAAGGUACUGACAUGAGGAUCACCCAUGUUUUAGUGUGGGCAUGUAGA [JMF's solution 27] (Eterna round: R96, puzzle: Exclusion NG 1)”, for which the “apparent KD of MS2 coat protein” value worked out at 122 nM (input ligand: FMN 200 uM), 78.5 nM under setting [2] and 94.4 nM (input ligand: none).
In the case of “UAUAUAUAGUAAGGAUAUGUAUUUGUUUUAUAAACAGAAGGUACUGACAUGAGGAUCACCCAUGUUUUAGUGUGGGCAUGUAGA [JMF's solution 11] (Eterna round: R96, puzzle: Exclusion NG 1)”, the “apparent KD of MS2 coat protein” value under setting [2] turned out to be 32.8 nM.
“UAUAUGUGAGGAUAUCAGGUGUGCUAGCGUACUGGUACAUCUGAGAAGGCACAUGAGGAUCACCCAUGUAUCUU [JL-ex4-3.25 Brourd mod] (puzzle: Exclusion 4)”: the “apparent KD of MS2 coat protein” value under setting [1] came out at 25.5 nM.
Consider “UAUGAAGUAGGAUAUACAUGAGGAUCACCCAUGUCCUUACUGAGACCGGGCACGGCUCGUAGAAGGGCUUUCGA [Eternabot (L2) Solution 50] (Eterna round: R97, puzzle: Exclusion 3)”, for which the “apparent KD of MS2 coat protein” value (input ligand: FMN 200 uM) turned out to be 36.7 nM and the “apparent KD of MS2 coat protein” value (input ligand: none) amounted to 40.7 nM.
“UAUGGUUAAGUCAGGAUAUACAAACAGAAAUCUGAGUAGAAGGGACAUGAGGAUCACCCAUGUAUGGUAGUGUU [Ex4 #56] (Eterna round: R97, puzzle: Brourd's mod of Exclusion 4)”: the “apparent KD of MS2 coat protein” value worked out at 48.6 nM (input ligand: FMN 200 uM) and 44.6 nM (input ligand: none).
In the case of “UAUGUCUUUGUGAGGAUAUACUUUGUUUGGUCGUAGUAGAAGGCACAUGAGGAUCACCCAUGUAGAUUUUUGGU [JR_BME4_Sub011] (puzzle: Brourd's mod of Exclusion 4)”, under setting [1], the “apparent KD of MS2 coat protein” value was determined as 20.1 nM.
Regarding “UAUUAACAAGCGAGAUCCCACAUGAGGAUCACCCAUGUGCUCGUCUUAUAAGGUACUGUGACGAAAGUCACGGUACC [Sensor 3, v1 - 91 v2] (Eterna round: R97, puzzle: Sensor, turn-off variant 1)”, the “apparent KD of MS2 coat protein” value by setting is: (input ligand: FMN 200 uM) 17 nM; (input ligand: none) 15.7 nM.
Take “UAUUAACAUGUAGGAUAUCUGCACGUUUAGUGCAGAGAAGGACAUGAGGAUCACCCAUGUAGAUCAUAAUAAUUUAAUUUAAUU [ENG1/6-D2] (Eterna round: R96, puzzle: Exclusion NG 1)”: the “apparent KD of MS2 coat protein” value by setting is: (input ligand: FMN 200 uM) 541 nM; under setting [2], 141 nM; (input ligand: none) 117 nM.
With “UAUUAAUUAAUUAAUUAAUACAUGAGGAUCACCCAUGUAAUUUAAGAUCCUUAUACAAGCUUUGAUCUCGUAAUUAA [Stov1/4-A2] (Eterna round: R97, puzzle: Sensor, turn-off variant 1)”, the “apparent KD of MS2 coat protein” value runs as follows: (input ligand: FMN 200 uM) 861 nM; (input ligand: none) 696 nM.
On the same counts, the results for “UAUUAGCAAGUGAGAUCCGACAUGAGGAUCACCCAUGUGCUCGUCUUAUAAGCUAAUAUAAGAAAACUUAUAUUAGC [Elimod 7 - Jieux - Sensor, turn-off variant 1] (Eterna round: R97, puzzle: Sensor, turn-off variant 1)” are 242 nM and 284 nM.
For “UAUUAGGGAGGAUAUCGCAGUUGCAACAUGAGGAUCACCCAUGUGAACAGCCUCACCAAUCGAGAAGGCCUGAGUG [Eternabot (L2) Solution 59] (Eterna round: R97, puzzle: Exclusion 5)”, in that order: 71 nM and 75.5 nM.
For “UAUUAGUAAGGAUAUGAGUCGUAGAACAAUAGUACUACGUCUCAGAAGGUACAUGAGGAUCACCCAUGUUCAUU [Mod of Fisker 2 - Jieux - Exclusion 4] (Eterna round: R97, puzzle: Exclusion 4)”, in that order: 27.4 nM and 19 nM.
On to “UAUUAGUGAGGAUAUGAGUCGUAGAACAAUAGUACUACGUCUCAGAAGGUACAUGAGGAUCACCCAUGUUCCUC [Fiskers Ex 4 Super Stable 44 mod 32] (puzzle: Exclusion 4)”, for which, under setting [1], the “apparent KD of MS2 coat protein” value is 18.9 nM.
Still for that read-out and setting: the same measure for “UAUUAGUGAGGAUAUGAGUCGUAGAACAAUAGUACUACGUCUCAGAAGGUACAUGAGGAUCACCCAUGUUCCUU [Fiskers Ex 4 Super Stable 44 mod 34] (puzzle: Exclusion 4)”: 12 nM.
In the case of “UAUUCGCAAGCGAGAUCCCACAUGAGGAUCACCCAUGUGCUCGUCUUAUAAGGUACUGUGACGAGAGUCACGGUACC [Mat - Sensor, turn-off var - Eli Mod - D82] (Eterna round: R97, puzzle: Sensor, turn-off variant 1)”, the “apparent KD of MS2 coat protein” value is 16.8 nM (input ligand: FMN 200 uM) and 14.7 nM (input ligand: none).
